Experimental data: PMC6110258

Tests used:
[1] = biological target: H5-Strep-tag (Strep-tag II-fused haemagglutinin H5 ectodomain of A/duck/Viet Nam/TG24-01/2005 (H5N1) (influenza A virus A/duck/Viet Nam/TG24-01/2005 (H5N1) | not stated)); test: SEC
[2] = biological target: H5-Strep-tag (Strep-tag II-fused haemagglutinin H5 ectodomain of A/duck/Viet Nam/TG24-01/2005 (H5N1) (influenza A virus A/duck/Viet Nam/TG24-01/2005 (H5N1) | not stated)); test: cross-linking

Q: “H5-Strep-tag (Strep-tag II-fused haemagglutinin H5 ectodomain of A/duck/Viet Nam/TG24-01/2005 (H5N1)” was tested. Which stoichiometry N [1] did it give?
A: The stoichiometry N was 3.

Q: And the stoichiometry N [2]?
A: The stoichiometry N was 3.
